Measurements as given in paper PMC2807407 (Molecular cell, 2009).

B1: Dsk2-UBL (domain or fragment, Saccharomyces cerevisiae)
chain: MSLNIHIKSGQDKWEVNVAPESTVLQFKEAINKANGIPVANQRLIYSGKILKDDQTVESYHIQDGHSVHLVKSQP
B2: Rpn10 C-terminal construct Rpn10_(204-268) (domain or fragment, Saccharomyces cerevisiae, UniProt P38886 204-268, looked up)
chain: GSGGDSDANGTFMDFGVDPSMDPELAMALRLSMEEEQQRQERLRQQQQQQDQPEQSEYPEQHQDK

Experiments:
[1] = target: B2; experiment: NMR titration
Dsk2-UBL D64K [2] = target: T1, Dsk2-UBL D64K (Saccharomyces cerevisiae, UniProt P48510 1-75, D64K); experiment: SPR
T1 sequence: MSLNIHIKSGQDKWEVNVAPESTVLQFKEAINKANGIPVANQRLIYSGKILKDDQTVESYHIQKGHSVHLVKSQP

Dsk2 (full length) = target: T2, Dsk2 (full length) (Saccharomyces cerevisiae, UniProt P48510 1-373); experiment: SPR
T2 sequence (looked up): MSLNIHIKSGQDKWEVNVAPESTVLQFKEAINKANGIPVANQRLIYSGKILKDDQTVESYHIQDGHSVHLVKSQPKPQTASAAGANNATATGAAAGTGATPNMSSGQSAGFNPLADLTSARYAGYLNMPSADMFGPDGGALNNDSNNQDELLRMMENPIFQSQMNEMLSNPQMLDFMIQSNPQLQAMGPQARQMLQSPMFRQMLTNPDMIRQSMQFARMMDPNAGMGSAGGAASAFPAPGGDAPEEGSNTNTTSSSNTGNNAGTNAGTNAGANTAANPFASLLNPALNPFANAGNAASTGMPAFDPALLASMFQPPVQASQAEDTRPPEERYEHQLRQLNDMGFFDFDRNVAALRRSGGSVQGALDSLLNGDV

Dsk2-UBL [3] = target: B1; experiment: SPR
Dsk2-UBL D64K [4] = target: T1, Dsk2-UBL D64K; experiment: NMR titration
Dsk2-UBL [5] = target: B1; experiment: NMR titration

Binder: B1
- stoichiometry N [1]: 1

Binder: B2
- Kd (Dsk2-UBL D64K [2]): 31.8 µM
- Kd (Dsk2 (full length)): 12.5 µM
- Kd (Dsk2-UBL [3]): 9 µM
- Kd (Dsk2-UBL D64K [4]): 39 ± 17 µM
- Kd (Dsk2-UBL [5]): 3.5 ± 0.7 µM
